Columns and labels:
ST-pro-factor D-His = ST-pro-factor D-His (UniProt P00746)
purified plasma factor B = purified plasma factor B (UniProt P00751)
Chain of purified plasma factor B (P00751 26-764): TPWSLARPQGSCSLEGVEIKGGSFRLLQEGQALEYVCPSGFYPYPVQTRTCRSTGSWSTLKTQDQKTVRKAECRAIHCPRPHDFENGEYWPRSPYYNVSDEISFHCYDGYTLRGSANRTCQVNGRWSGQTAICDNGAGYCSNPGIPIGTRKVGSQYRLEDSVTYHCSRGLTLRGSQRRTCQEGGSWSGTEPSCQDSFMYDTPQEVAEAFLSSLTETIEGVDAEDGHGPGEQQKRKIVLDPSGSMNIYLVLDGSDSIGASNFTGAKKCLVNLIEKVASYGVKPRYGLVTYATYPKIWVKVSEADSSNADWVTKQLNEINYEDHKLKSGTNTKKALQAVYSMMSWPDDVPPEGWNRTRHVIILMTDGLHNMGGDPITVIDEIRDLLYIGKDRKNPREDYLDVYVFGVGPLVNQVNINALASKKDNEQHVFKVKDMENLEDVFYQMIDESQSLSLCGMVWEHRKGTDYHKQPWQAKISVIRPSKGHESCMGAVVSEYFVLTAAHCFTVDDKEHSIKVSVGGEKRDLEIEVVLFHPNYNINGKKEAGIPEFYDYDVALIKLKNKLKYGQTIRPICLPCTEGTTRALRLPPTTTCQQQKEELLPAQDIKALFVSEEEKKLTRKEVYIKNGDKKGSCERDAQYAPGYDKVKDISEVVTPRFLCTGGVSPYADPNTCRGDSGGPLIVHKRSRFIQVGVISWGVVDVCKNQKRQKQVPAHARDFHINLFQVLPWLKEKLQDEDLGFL

Chain of full length recombinant human MASP-3 (active) (chain): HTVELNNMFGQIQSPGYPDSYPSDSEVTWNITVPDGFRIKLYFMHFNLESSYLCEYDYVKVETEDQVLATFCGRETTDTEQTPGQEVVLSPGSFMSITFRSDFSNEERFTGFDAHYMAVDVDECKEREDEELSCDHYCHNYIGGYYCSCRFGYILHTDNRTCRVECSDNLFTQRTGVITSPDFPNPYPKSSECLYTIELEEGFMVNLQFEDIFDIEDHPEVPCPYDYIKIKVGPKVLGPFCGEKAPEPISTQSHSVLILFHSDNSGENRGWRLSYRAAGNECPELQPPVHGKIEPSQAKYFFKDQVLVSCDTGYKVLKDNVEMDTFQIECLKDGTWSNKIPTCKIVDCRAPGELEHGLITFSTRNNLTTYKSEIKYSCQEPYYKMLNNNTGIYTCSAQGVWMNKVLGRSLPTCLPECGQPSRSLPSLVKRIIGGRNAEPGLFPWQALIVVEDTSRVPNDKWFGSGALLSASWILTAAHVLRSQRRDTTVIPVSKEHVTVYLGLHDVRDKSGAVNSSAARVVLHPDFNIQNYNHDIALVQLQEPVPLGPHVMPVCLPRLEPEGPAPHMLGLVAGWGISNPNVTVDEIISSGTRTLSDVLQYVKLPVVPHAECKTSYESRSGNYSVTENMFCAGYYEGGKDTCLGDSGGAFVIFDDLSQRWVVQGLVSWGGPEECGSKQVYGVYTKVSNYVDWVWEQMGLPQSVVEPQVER
Chain of ST-pro-factor D-His (P00746 21-253): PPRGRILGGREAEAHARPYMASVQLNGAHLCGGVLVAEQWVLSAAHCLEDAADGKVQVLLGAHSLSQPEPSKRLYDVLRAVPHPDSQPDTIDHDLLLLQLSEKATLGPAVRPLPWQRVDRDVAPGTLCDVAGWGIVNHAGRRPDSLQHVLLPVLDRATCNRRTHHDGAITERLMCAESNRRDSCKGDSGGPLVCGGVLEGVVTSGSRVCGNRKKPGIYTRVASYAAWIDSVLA

Substance: full length recombinant human MASP-3 (active)
- cleavage of pro-factor D substrate, Western blot (ST-pro-factor D-His): only full length MASP-3 (lane 2) and the MASP-1 CCP1-CCP2-SP) fragment (lane 5) cleaved ST-pro-factor D-His6
- cleavage of pro-factor D to factor D, Western blot, no mAb (ST-pro-factor D-His): MASP-3 cleaves approximately 50% of pro-factor D into factor D
- factor B cleavage, Coomassie-stained SDS-PAGE, with C3(H2O) (purified plasma factor B): either MASP-3 or pro-factor D are able to mediate factor B cleavage, as long as C3 is present
